T1: FcγRIIa H (human, UniProt P12318 34-217)
T1 construct: extracellular domain; also called FcgRIIa H; FcγRIIa type H
T1 sequence (looked up): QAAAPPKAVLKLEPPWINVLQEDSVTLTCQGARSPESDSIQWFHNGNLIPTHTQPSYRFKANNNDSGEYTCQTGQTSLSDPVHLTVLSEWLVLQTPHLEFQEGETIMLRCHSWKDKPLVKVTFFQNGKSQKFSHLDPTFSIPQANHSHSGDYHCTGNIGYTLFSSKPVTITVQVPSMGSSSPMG

T2: FcγRIIb (human, UniProt P31994 43-217)
T2 construct: extracellular domain; also called FcgRIIb; 2b
T2 sequence (looked up): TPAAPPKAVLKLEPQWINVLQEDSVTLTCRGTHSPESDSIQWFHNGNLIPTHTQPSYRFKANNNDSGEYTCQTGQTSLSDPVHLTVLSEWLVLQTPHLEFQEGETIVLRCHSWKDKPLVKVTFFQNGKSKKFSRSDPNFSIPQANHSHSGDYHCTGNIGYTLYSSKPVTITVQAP

B1: GpH7-A5/GpH7-B3 variant S324_08L/GpL16-k0 (antibody, human IgG1, kappa)
heavy 1: not shown
heavy 2: not shown
light: DIVMTQSPLSLPVTPGEPASISCQASESLVHSNRNTYLHWYLQKPGQSPQLLIYKVSNRFSGVPDRFSGSGSGTDFTLKISRVEAEDVGVYYCSQNTHVPPTFGQGTKVEIERTVAAPSVFIFPPSDEQLKSGTASVVCLLNNFYPREAKVQWKVDNALQSGNSQESVTEQDSKDSTYSLSSTLTLSKADYEKHKVYACEVTHQGLSSPVTKSFNRGEC
notes: heterodimerized IgG1, mutation in one H chain; also called He Ab
B2: GpH7-A5/GpH7-B3 variant S324_02A/GpL16-k0 (antibody, human IgG1, kappa)
heavy 1: not shown
heavy 2: not shown
light: B1 light
notes: as for B1
B3: GpH7-A5/GpH7-B3 variant S298_14T/GpL16-k0 (antibody, human IgG1, kappa)
heavy 1: not shown
heavy 2: not shown
light: B1 light
notes: as for B1
B4: GpH7-A5/GpH7-B3 variant S324_14T/GpL16-k0 (antibody, human IgG1, kappa)
heavy 1: not shown
heavy 2: not shown
light: B1 light
notes: as for B1
B5: GpH7-A5/GpH7-B3 variant S324_20W/GpL16-k0 (antibody, human IgG1, kappa)
heavy 1: not shown
heavy 2: not shown
light: B1 light
notes: as for B1
B6: GpH7-A5/GpH7-B3 variant S337_02A/GpL16-k0 (antibody, human IgG1, kappa)
heavy 1: not shown
heavy 2: not shown
light: B1 light
notes: as for B1
B7: GpH7-A5/GpH7-B3 variant S298_10E/GpL16-k0 (antibody, human IgG1, kappa)
heavy 1: not shown
heavy 2: not shown
light: B1 light
notes: as for B1
B8: GpH7-A5/GpH7-B3 variant S337_03V/GpL16-k0 (antibody, human IgG1, kappa)
heavy 1: not shown
heavy 2: not shown
light: B1 light
notes: as for B1
B9: GpH7-A5/GpH7-B3 variant S298_19Q/GpL16-k0 (antibody, human IgG1, kappa)
heavy 1: not shown
heavy 2: not shown
light: B1 light
notes: as for B1
B10: GpH7-A5/GpH7-B3 variant S324_19Q/GpL16-k0 (antibody, human IgG1, kappa)
heavy 1: not shown
heavy 2: not shown
light: B1 light
notes: as for B1
B11: GpH7-A5/GpH7-B3 variant S298_18N/GpL16-k0 (antibody, human IgG1, kappa)
heavy 1: not shown
heavy 2: not shown
light: B1 light
notes: as for B1
B12: GpH7-A5/GpH7-B3 variant S324_03V/GpL16-k0 (antibody, human IgG1, kappa)
heavy 1: not shown
heavy 2: not shown
light: B1 light
notes: as for B1
B13: GpH7-A5/GpH7-B3 variant S298_15Y/GpL16-k0 (antibody, human IgG1, kappa)
heavy 1: not shown
heavy 2: not shown
light: B1 light
notes: as for B1
B14: GpH7-A5/GpH7-B3 variant S337_01G/GpL16-k0 (antibody, human IgG1, kappa)
heavy 1: not shown
heavy 2: not shown
light: B1 light
notes: as for B1
B15: GpH7-A5/GpH7-B3 variant S298_16H/GpL16-k0 (antibody, human IgG1, kappa)
heavy 1: not shown
heavy 2: not shown
light: B1 light
notes: as for B1
B16: GpH7-A5/GpH7-B3 variant S298_06M/GpL16-k0 (antibody, human IgG1, kappa)
heavy 1: not shown
heavy 2: not shown
light: B1 light
notes: Heterodimerized antibody, alteration in one H chain only; also called He Ab S298M
B17: GpH7-A5/GpH7-B3 variant P238_08L/GpL16-k0 (antibody, human IgG1, kappa)
heavy 1: not shown
heavy 2: not shown
light: B1 light
notes: Heterodimerized antibody, alteration in one H chain only; also called He Ab P238L
B18: GpH7-A5/GpH7-B3 variant S239_05P/GpL16-k0 (antibody, human IgG1, kappa)
heavy 1: not shown
heavy 2: not shown
light: B1 light
notes: Heterodimerized antibody, alteration in one H chain only; also called He Ab S239P
B19: GpH7-A5/GpH7-B3 variant H268_01G/GpL16-k0 (antibody, human IgG1, kappa)
heavy 1: not shown
heavy 2: not shown
light: B1 light
notes: Heterodimerized antibody, alteration in one H chain only; also called He Ab H268G
B20: GpH7-A5/GpH7-B3 variant P238_19Q/GpL16-k0 (antibody, human IgG1, kappa)
heavy 1: not shown
heavy 2: not shown
light: B1 light
notes: Heterodimerized antibody, alteration in one H chain only; also called He Ab P238Q
B21: GpH7-A5/GpH7-B3 variant P238_20W/GpL16-k0 (antibody, human IgG1, kappa)
heavy 1: not shown
heavy 2: not shown
light: B1 light
notes: Heterodimerized antibody, alteration in one H chain only; also called He Ab P238W
B22: GpH7-A5/GpH7-B3 variant S267_01G/GpL16-k0 (antibody, human IgG1, kappa)
heavy 1: not shown
heavy 2: not shown
light: B1 light
notes: Heterodimerized antibody, alteration in one H chain only; also called He Ab S267G
B23: GpH7-A5/GpH7-B3 variant P238_15Y/GpL16-k0 (antibody, human IgG1, kappa)
heavy 1: not shown
heavy 2: not shown
light: B1 light
notes: Heterodimerized antibody, alteration in one H chain only; also called He Ab P238Y
B24: GpH7-A5/GpH7-B3 variant S267_08L/GpL16-k0 (antibody, human IgG1, kappa)
heavy 1: not shown
heavy 2: not shown
light: B1 light
notes: Heterodimerized antibody, alteration in one H chain only; also called He Ab S267L

Target: T3, FcγRIa (human, UniProt P12314 16-292)
T3 construct: extracellular domain; soluble extracellular domain with C-terminal His tag, expressed in FreeStyle293 cells; also called FcgRI; FcgRIa
Assay: SPR (Biacore), captured antibody, FcγRIa analyte; relative to HeCon Ab GpH7-A5/GpH7-B3/GpL16-k0 = 100

T3 sequence (P12314 16-292): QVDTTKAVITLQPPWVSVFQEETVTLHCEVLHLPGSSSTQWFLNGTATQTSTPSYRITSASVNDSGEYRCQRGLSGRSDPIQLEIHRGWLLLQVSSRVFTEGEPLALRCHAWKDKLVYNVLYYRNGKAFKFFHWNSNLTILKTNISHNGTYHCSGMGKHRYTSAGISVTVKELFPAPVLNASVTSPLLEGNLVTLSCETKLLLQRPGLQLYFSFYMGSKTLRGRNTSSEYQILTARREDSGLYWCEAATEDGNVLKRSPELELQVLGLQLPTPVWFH

He/Con_1a | Binder
103 % of control | B1
103 % of control | B2
107 % of control | B3
121 % of control | B4
114 % of control | B5
106 % of control | B6
108 % of control | B7
107 % of control | B8
109 % of control | B9
112 % of control | B10
108 % of control | B11
104 % of control | B12
107 % of control | B13
107 % of control | B14
109 % of control | B15

Target: T1, FcγRIIa H
Assay: SPR (Biacore), antibody captured, FcγR analyte; binding relative to GpH7-A5/GpH7-B3/GpL16-k0 = 100

He/Con_2aH | Binder
98.1 % of control | B16
84.6 % of control | B17
33.3 % of control | B18
99.2 % of control | B19
56.4 % of control | B20
59.5 % of control | B21
71.3 % of control | B22
59.8 % of control | B23
29 % of control | B24

Target: T2, FcγRIIb
Assay: as above

He/Con_2b | Binder
102 % of control | B16
204 % of control | B17
102 % of control | B18
144 % of control | B19
110 % of control | B20
123 % of control | B21
105 % of control | B22
218 % of control | B23
109 % of control | B24
